Data reported in paper PMC2788937 (Science signaling, 2009).
No end group written: not given here.

What was measured:
[1] = biological target: FLAG-tagged human β2-adrenergic receptor (human, UniProt P07550 1-413); assay: pull-down
GST-β2AR(330–413) = GST-β2AR(330–413) (human, UniProt P07550 330-413); assay: pull-down

binding result [1]	binding result (GST-β2AR(330–413))	Binder
binds	–	LRGDQITWIGGNEEGCEAISFLLSLIDRLVLYCGSRLGKYYVKE (domain or fragment, human, UniProt Q9H6Z9 73-116, looked up) [GST-EGLN3^(73-116)]
–	binds	EAISFLLSLIDRLVLY (also: FITC label, position not given here) [FITC-labeled peptide derived from human EGLN3(89–104)]
